Like-named read-outs stand apart in the source and are kept apart here. Blank lines part the entries; values can stand above or below the molecule they belong to. Square brackets hold non-standard residues; d marks the D form. Ends that are not written are not given here. pT = C[C@@H](OP(=O)(O)O)[C@H](N)C(=O)O
B1: human Mob1, full length, unphosphorylated, untagged (natural protein)
chain: MSFLFSSRSSKTFKPKKNIPEGSHQYELLKHAEATLGSGNLRQAVMLPEGEDLNEWIAVNTVDFFNQINMLYGTITEFCTEASCPVMSAGPRYEYHWADGTNIKKPIKCSAPKYIDYLMTWVQDQLDDETLFPSKIGVPFPKNFMSVAKTILKRLFRVYAHIYHQHFDSVMQLQEEAHLNTSFKHFIFFVQEFNLIDRRELAPLQELIEKLGSKDR

Legend:
[1] = target: PPXY-containing peptide of Lats1
[2] = target: T1, human Mst2 wild type, autophosphorylated (pMst2) (human, UniProt Q13188 9-491); assay: NMR titration
T1 sequence: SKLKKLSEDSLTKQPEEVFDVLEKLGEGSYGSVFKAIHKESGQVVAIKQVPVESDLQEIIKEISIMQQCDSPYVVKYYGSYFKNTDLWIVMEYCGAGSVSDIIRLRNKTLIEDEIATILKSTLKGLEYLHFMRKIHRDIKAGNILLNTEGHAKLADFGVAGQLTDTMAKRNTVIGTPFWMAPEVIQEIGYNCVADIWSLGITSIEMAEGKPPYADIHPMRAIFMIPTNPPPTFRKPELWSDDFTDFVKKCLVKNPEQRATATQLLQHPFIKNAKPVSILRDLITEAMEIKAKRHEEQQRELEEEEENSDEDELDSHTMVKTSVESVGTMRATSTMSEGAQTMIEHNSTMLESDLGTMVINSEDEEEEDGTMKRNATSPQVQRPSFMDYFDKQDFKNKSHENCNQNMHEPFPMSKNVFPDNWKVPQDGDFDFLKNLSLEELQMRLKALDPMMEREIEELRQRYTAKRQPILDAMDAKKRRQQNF

[3] = target: T2, human Lats1C ΔHM (residue 602–1060) (human, UniProt O95835 602-1060); assay: SEC
T2 sequence: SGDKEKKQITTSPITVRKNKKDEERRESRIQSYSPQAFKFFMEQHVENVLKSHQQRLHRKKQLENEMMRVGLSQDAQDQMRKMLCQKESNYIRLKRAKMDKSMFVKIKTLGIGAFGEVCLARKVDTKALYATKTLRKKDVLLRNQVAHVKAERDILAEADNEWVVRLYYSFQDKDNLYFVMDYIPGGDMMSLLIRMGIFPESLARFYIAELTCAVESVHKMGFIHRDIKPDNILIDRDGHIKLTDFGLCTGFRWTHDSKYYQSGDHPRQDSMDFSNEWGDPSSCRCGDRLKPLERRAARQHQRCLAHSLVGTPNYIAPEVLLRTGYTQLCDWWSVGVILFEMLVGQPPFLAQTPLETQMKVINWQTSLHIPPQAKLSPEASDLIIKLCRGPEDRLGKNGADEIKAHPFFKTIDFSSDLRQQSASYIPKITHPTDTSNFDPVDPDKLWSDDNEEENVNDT

[4] = target: B1; assay: pull-down
human Mob1 L207K = human Mob1 L207K (human, UniProt Q9H8S9 1-216, L207K); assay: pull-down
human Mob1 F167A = human Mob1 F167A (human, UniProt Q9H8S9 1-216, F167A); assay: pull-down
human Mob1 H164A = human Mob1 H164A (human, UniProt Q9H8S9 1-216, H164A); assay: pull-down
[5] = target: B1; assay: ITC
[6] = target: T3, human pMob1, full length, untagged (phosphorylated by Mst2) (human, UniProt Q9H8S9 1-216, phosphothreonine at 12 and 35); assay: crystal structure
T3 sequence: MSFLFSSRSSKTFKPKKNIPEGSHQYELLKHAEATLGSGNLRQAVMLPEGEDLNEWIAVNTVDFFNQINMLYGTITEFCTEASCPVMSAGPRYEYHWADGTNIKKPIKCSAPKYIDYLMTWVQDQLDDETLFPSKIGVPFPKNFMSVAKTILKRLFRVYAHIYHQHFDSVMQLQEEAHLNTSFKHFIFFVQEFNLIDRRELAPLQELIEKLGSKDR

[7] = target: B1; assay: ITC; remark: listed apart in the source

Molecule: B1
binding result [2]: binds
binding result [3]: binds

Molecule: DEEEEDG[pT]MKRNATSPQVQRPSFMDYFDKQD (domain or fragment, human, UniProt Q13188 371-401, looked up, not fully specified (N-terminus)) [GST-pMst2 MBM (residues 371–401), phosphorylated]
binding result [4]: binds

Molecule: DGTMKRNATSPQVQRPSFMDYFDKQ (domain or fragment, human, UniProt Q13188 376-400, looked up, not fully specified (N-terminus); also: phosphorylated, sites not given here) [GST-Mst2 linker fragment 376–400, phosphorylated with Mst2 kinase domain]
binding result [4]: binds

B2: GST-Mst2 371–427, phosphorylated with Mst2 kinase domain (domain or fragment, human, UniProt Q13188 371-427, looked up)
chain: DEEEEDG[pT]MKRNATSPQVQRPSFMDYFDKQDFKNKSHENCNQNMHEPFPMSKNVFPD
modifications: also: GST fusion
binding result (human Mob1 L207K): binds
binding result (human Mob1 F167A): binds
binding result (human Mob1 H164A): binds

Molecule: DEEEEDG[pT]MKRNATSPQVQRPSFMDYFDKQ [synthetic phospho-T378 Mst2 MBM peptide]
Kd [7]: 119 nM

The next lines start with the values.

Kd [1]: 156000 nM
Molecule: human Sav WW domains (domain or fragment)

Kd [5]: 230 nM
B3: human Mst2 ΔL/MBM (contains only the MBM but lacks all other linker residues) (enzyme)
chain: SKLKKLSEDSLTKQPEEVFDVLEKLGEGSYGSVFKAIHKESGQVVAIKQVPVESDLQEIIKEISIMQQCDSPYVVKYYGSYFKNTDLWIVMEYCGAGSVSDIIRLRNKTLIEDEIATILKSTLKGLEYLHFMRKIHRDIKAGNILLNTEGHAKLADFGVAGQLTDTMAKRNTVIGTPFWMAPEVIQEIGYNCVADIWSLGITSIEMAEGKPPYADIHPMRAIFMIPTNPPPTFRKPELWSDDFTDFVKKCLVKNPEQRATATQLLQHPFIKNAKPVSILRDLITEAMEIKAKRHEEQQRELEEEEDEEEEDGTMKRNATSPQVQRPSFMDYFDKQNWKVPQDGDFDFLKNLSLEELQMRLKALDPMMEREIEELRQRYTAKRQPILDAMDAKKRRQQNF

binding result [6]: binds
B4: human Lats1 602–704 (Lats1 MBD) (domain or fragment)
chain: SGDKEKKQITTSPITVRKNKKDEERRESRIQSYSPQAFKFFMEQHVENVLKSHQQRLHRKKQLENEMMRVGLSQDAQDQMRKMLCQKESNYIRLKRAKMDKSM

From PMC4511216 (Genes & Development, 2015)
